Results: IntAct's records for PubMed 25477193

Key:
kap3_human PRKAR2B [1] = biological target: kap3_human PRKAR2B (UniProt P31323)
kap3_human PRKAR2B [2] = biological target: kap3_human PRKAR2B (UniProt P31323); remark: listed apart in the source

## cAMP-dependent protein kinase catalytic subunit alpha (Homo sapiens) (from UniProt P17612) L206R
kap3_human PRKAR2B [1]
  effect of a mutation on the interaction: decreasing interaction strength
kap3_human PRKAR2B [2]
  effect of a mutation on the interaction: disrupting interaction strength
